The results in this text go back to US20200347144A1 (SHANGHAI HYAMAB BIOTECH, published 2020).

Assay [1] concerns the target T1, human 4-1BB, full length, on transfected cells (human, UniProt Q07011 24-255).
T1 construct: whole, on cells; also called CHOK1-h4-1BB
The assay is described as follows: FACS, CHOK1-h4-1BB cells; Ab 0.016 ug/ml. From the text: (§1) The pIRES plasmid carrying the full-length gene of monkey-derived […] (the preparation method is the same as the preparation method of the pCpC vector carrying the human-derived IgG Fc fragment (hFc) in “Preparation of immunogen A” of the step (1) in Example 1, in which the database accession number of the amino acid sequence of the extracellular region of monkey 4-1BB protein (Phe19-Thr239) is G7PSE7) was transfected into CHOK1 cell line to obtain CHOK1 stable transfected cell line containing monkey 4-1BB (herein referred to as CHOK1-c4-1BB stable cell line). The CHOK1-h4-1BB stable cell line and the CHOK1-c4-1BB stable cell line were expanded and cultivated to 90% confluence in T-75 cell culture flasks. The medium was exhausted, and washed twice with HBSS buffer (Hanks Balanced Salt Solution, purchased from Invitrogen), and then the cells were treated and collected with enzyme-free cell dissociation solution (Versene solution, purchased from Life Technology). The cells were washed twice with HBSS buffer, and after cell counting, the cells were diluted with HBSS buffer to 2×10⁶ cells per ml, and 1% goat serum blocking solution was added, the percentage being the mass percentage. It was incubated on ice for 30 minutes, and then washed twice with HBSS buffer by centrifugation. The collected cells were suspended in FACS buffer (HBSS containing 1% BSA, the percentage was the mass percentage) to 2×10⁶ cells/mL, and 100 μl per well was added to a 96-well FACS reaction plate. The purified 4-1BB antibody test sample obtained in Example 2 was added, 100 microliters per well and incubated on ice for 2 hours. […] It was washed three times with FACS buffer by centrifugation, and 100 μl of fixative [4% (v/v) paraformaldehyde] per well was added to suspend cells, and washed twice with FACS buffer after 10 minutes by centrifugation. The cells were suspended with 100 microliters of FACS buffer, and the results were detected and analyzed with FACS (FACS Calibur, purchased from BD).
Background: In flow cytometry, cells or beads pass a laser one at a time.

The target of assay [2] is T2, monkey 4-1BB on CHOK1 cells (monkey).
T2 construct: whole, on cells; also called CHOK1-c4-1BB
Kind of assay: FACS, CHOK1-c4-1BB cells; Ab 0.4 ug/ml.
From the text: as §1

For assay [3], the target named is T1, human 4-1BB, full length, on …. Kind of assay: FACS, CHOK1-h4-1BB cells; Ab 0.00013 ug/ml.
From the text: as §1

Assay [4] addresses T2, monkey 4-1BB on CHOK1 cells. The assay is described as follows: FACS, CHOK1-c4-1BB cells; Ab 0.0032 ug/ml.
From the text: as §1

Assay [5] concerns the target T1, human 4-1BB, full length, on …. The assay is described as follows: FACS, CHOK1-h4-1BB cells; Ab 0.0032 ug/ml.
From the text: as §1

Assay [6] has the same target. The assay is described as follows: FACS, CHOK1-h4-1BB cells; Ab 0.00064 ug/ml.
From the text: as §1

Assay [7] has the same target. The assay is described as follows: FACS, CHOK1-h4-1BB cells; Ab 0.08 ug/ml.
From the text: as §1

For assay [8] the target is unchanged. The assay is described as follows: FACS, CHOK1-h4-1BB cells; Ab 2 ug/ml.
From the text: as §1

Assay [9] shares this target. The assay is described as follows: FACS, CHOK1-h4-1BB cells; Ab 10 ug/ml.
From the text: as §1

In assay [10] the target is T2, monkey 4-1BB on CHOK1 cells. Kind of assay: FACS, CHOK1-c4-1BB cells; Ab 0.00013 ug/ml.
From the text: as §1

Assay [11] shares this target. Kind of assay: FACS, CHOK1-c4-1BB cells; Ab 10 ug/ml.
From the text: as §1

Assay [12] shares this target. The assay is described as follows: FACS, CHOK1-c4-1BB cells; Ab 0.08 ug/ml.
From the text: as §1

Assay [13] shares this target. Kind of assay: FACS, CHOK1-c4-1BB cells; Ab 2 ug/ml.
From the text: as §1

Assay [14] concerns the target T1, human 4-1BB, full length, on …. Kind of assay: FACS, CHOK1-h4-1BB cells; Ab 0.4 ug/ml.
From the text: as §1

Assay [15] deals with T2, monkey 4-1BB on CHOK1 cells. The assay is described as follows: FACS, CHOK1-c4-1BB cells; Ab 0.016 ug/ml.
From the text: as §1

For assay [16] the target is unchanged. The assay is described as follows: FACS, CHOK1-c4-1BB cells; Ab 0.00064 ug/ml.
From the text: as §1

Assay [17] deals with T3, hFc-tagged human 4-1BB extracellular domain protein (4-1BB-hFc) (human, UniProt Q07011 24-186, limits assumed).
T3 construct: also called immunogen A; 4-1BB^ECD-hFc; not shown: human IgG Fc fragment (hFc) of the pCpC vector
Kind of assay: ELISA: 4-1BB-hFc coated at 0.5 µg/mL, his-muCD8a-4-1BBL titrated, detection by biotin anti-mouse CD8a and streptavidin-HRP, OD450. For orientation: ELISA stands for enzyme-linked immunosorbent assay.

T1 sequence (Q07011 24-255): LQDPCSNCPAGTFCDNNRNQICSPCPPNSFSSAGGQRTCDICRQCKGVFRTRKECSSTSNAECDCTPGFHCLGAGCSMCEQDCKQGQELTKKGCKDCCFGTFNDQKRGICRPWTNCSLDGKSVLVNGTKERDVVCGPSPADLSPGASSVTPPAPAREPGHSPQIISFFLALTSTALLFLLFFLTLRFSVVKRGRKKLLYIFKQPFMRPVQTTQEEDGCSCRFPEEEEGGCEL

B1: 100F3C4 (antibody, V domains shown)
VH: QVQLQESGPGLVKPSGTLSLTCAVSGGSISSSNWWSWVRQPPGKGLEWIGEIYHSGSTNYNPSLKSRVTMSVDKSKNQFSLELRSVTAADTAVYYCARDAVDAYYYYYGMDVWGQGTTVTVSS
VL: DIQLTQSPSFLSASVGDRVTITCRASQGISSYLAWYQQKPGKAPKLLIYAASTLQSGVPSRFSGSGSGTEFTLTISSLQPEDFATYYCQHLNSYPFTFGPGTKVDLK
As for B1, the average fluorescence intensity in [1] was determined as 12.7 MFI; in assay [2], 204 MFI; in [3], 2 MFI; in assay [4], 5.4 MFI; in assay [5] it was 4.6 MFI; in [6], 2.5 MFI. For the same molecule, the average fluorescence intensity in assay [7] was 43.1 MFI; in assay [8], 390 MFI; in assay [9], 458 MFI; in assay [10] it was 2.2 MFI; in assay [11], 552 MFI; in assay [12], 51.1 MFI. In addition, the average fluorescence intensity turned out to be 479 MFI in assay [13], 154 MFI in [14], 15.2 MFI in assay [15] and 2.9 MFI in assay [16].

B2: his-muCD8a-4-1BBL^ECD fusion protein (ligand, UniProt P01731 28-194, looked up)
chain: KPQAPELRIFPKKMDAELGQKVDLVCEVLGSVSQGCSWLFQNSSSKLPQPTFVVYMASSHNKITWDEKLNSSKLFSAMRDTNNKYVLTLNKFSKENEGYYFCSVISNSVMYFSSVVPVLQKVNSTTTKPVLRTPSPVHPTGTSQPQRPEDCRPRGSVKGTGLDFACDREGPELSPDDPAGLLDLRQGMFAQLVAQNVLLIDGPLSWYSDPGLAGVSLTGGLSYKEDTKELVVAKAGVYYVFFQLELRRVVAGEGSGSVSLALHLQPLRSAAGAAALALTVDLPPASSEARNSAFGFQGRLLHLSAGQRLGVHLHTEARARHAWQLTQGATVLGLFRVTPEIPAGLPSPRSE
notes: also called 4-1BB ligand protein; not shown: his-tag on the N side
One may read the EC50 (read off the curve) as the concentration giving half of the maximal effect. Take B2: the “EC50 (read off the curve)” value in assay [17] is approximately 0.03 µg/mL.
